Experiment: yeast display, Sf9 membrane polyspecificity reagent, FACS + sequencing; frameworks hold sequencing errors
Method in brief: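 After 36–48 hours of galactose induction, yeast (Saccharomyces cerevisiae BJ5465) displaying a synthetic nanobody library were stained at 4 °C for 1 hour with 10% biotinylated, detergent-solubilized Sf9 membrane reagent. Streptavidin microbeads enriched the stained cells before FACS sorting into low and high (top ~1%) gates on anti-HA and streptavidin fluorescence. Each clone's polyreactivity label reflects its gate of origin.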

Row | Sequence | polyreactivity (PSR sort gate)
1 | QVQLVESGGGLVQAGGSLRLSCAASGFTFGRNAMGWYRQAHGKERELVASIDWSGGSTYYADSVKGRFTISRDNAKNTFYLQMNTLKPEDTAVYYCAVGPNSVGNRSYGFDYWGQGTQVTLSS | low polyreactivity
2 | QVQLVESGGGLVQAGGSLRLSCAASGSIFFYYAMGWYRQAPGKERELVAAISYSDGTTYYADSVKGRFTISRDNAKNTVYLQMNSLKPEDTAVYYCAADLWVGLVSLWDGYVEYDYWGQGTQVTVSS | low polyreactivity
3 | QVQLVESGGGLVQAGGSLRLSCAASGSIFGRYGMGWYRQAPGKERELVAAITSGTRTNYADSVKGRFTISRDNAKNTVYLQLNSLKPEDTAVYYCNALRLRGNYEYGYWGLGTQVTVSS | low polyreactivity
4 | QVQLVESGGGLVQAGGSLRLSCAASGITFSYYAMGWYRQAPGKERELVAAISWSGGTTYYADSVKGRFTISRDNAKNTVYLQMNSLKPEDTAVYYCAADGGAVGSDYWGQGTQVTVSS | high polyreactivity
5 | QVQLVESGGGLVQEGGSLRLSCAASGSILYYYAMGWYRQAPGKERELVATITRRGGSTYYADSVKGRFTISRDNAKNTVYLQMNSLKPEDTAVYFCAARSRYGELYYWGQGTQVTVSS | high polyreactivity
6 | QVQLVESGGGLVQAGGSLRLSCAASGTIPGYAMGWYRQAPGKETELVAAITWSDDSTFYADSVKGRFTISRDNAKNTVYLQMNSLKPEDTAVYYCAAEYVVSTQEFDYWGQGTQVTVSS | low polyreactivity
7 | QVQLVESAGGLVQAGVSLRLSCAASGFTFGWYAMGWYRQAPGKERELVATISWSGSSTYYADSVKGRFTISRDNAKNTVYVQMNSLKPDDTAVYYCNAVYGRFVVLRYDYWGQGTQVTVSS | high polyreactivity
8 | QVQLVESGGGLVQAGGSLRLSCAASGSIFERYSMGWYRQATGKERELFATISKSGDSKYYADSVKGRFTISRDNAKNTVYFQMNRLKPEDTAVYYCSADGWYETSDATFYYWGQGTQVNVSS | low polyreactivity
9 | QVQLVESGGGLVQAGGSLRLSCADSGIIFYYNAMGWYRQAPGKEREFVAAIDDRGDSTYYADSVKGRFTISRDNAKNTVYLQMNSLKPEDTAVYYCAARDGYLYFDAMDYWGQGTLVTVSS | low polyreactivity
10 | QVQLVESGGGLVQAGGSLRLSCAASGSTFVLYAMGWYRQAPGKERELVAVISWSGGSTYYADSVKGRFTISRDNAKNTVYLQMNSLKPEDTAVYYCAKRYRVSYYPYADPYGYWGQGTQVTVSS | low polyreactivity
11 | QVQLVESGGGLVQAGGSLRFSCAASGFTFYEYAMGWYRQAPGKERELVAAINWNGGRTYYADSVKGRFTISRDNAKNTVYLQMNSLKPEDTAVYYCAARVAPKTKISRRYYWGQGTQVNVSS | high polyreactivity
12 | QVQLVESGGGLVQAGGSLRLSCAASGSIFNRYAMRWYRQAPGKERALVAAISRSGSTYYADSVKGRFTISRDNAKNTVYLQMNSLKPEDTAVYYCNARGTTHHTSYDYWGQGTQVTVSS | low polyreactivity
13 | QVQLVESGGGLVQAGGSLRLSCAASGSIFYSNMGWYRQAPGKEREFFAAISGSGVRTYYADSVKGRFTISRDNAKNTVYLQMNSLKPEDTAVYYCNAGRRQDFRYNYWGHGTQVTVSS | high polyreactivity
14 | QVQLVESGGGLVHAGGSLRLSCAASGRTFGKYAMGWYRQAPGKERELVAAISSGGTTYYADSVKGRFTISRDNAKNTVYLQMNSLKPEDTAVYYCAADPRYPYNYWGQGTQVTVSS | low polyreactivity
15 | QVQLVESGGGLVQAGGRLRLSCAASGRIFGYYAMGWYRQAPGKERELVAAISYRGGTTYYADSVKGRFTISRDNAKNTVYLQMNSLKPEDTAVYYCAAAAKSGLDYWGQGTQVTVSS | high polyreactivity
16 | QVQLVESGGGLVQAGGSLRLSCAASGSTFYVNAMGWYRQAPGKERELVAAISWTDDSTYYADSVKGRFTISRDNAKNTVYLQMNSLKPEDTAVYYCAAEQYRYYEVEYWGQGTQVTVSS | high polyreactivity

Row | Sequence | polyreactivity (PSR sort gate)
17 | QLQLVESGGGLVQAGGSLRLSCAASGRNFVHNAMGWYRPAPGKEREFVAAISLRGGSTYYADSVKGRFTTSRDNAKNSVYLQMNSLKPEDTAVYYCAAVPAHFYGYDYWGQGTQVTVSS | low polyreactivity
18 | QVQLQESGDGLLQAVGSLRLSCAASGYISGYYYMGWYRQAPGKERELVAGIDAFGSSTNYADCVKGRFTISRDNGKNTVYLQMNSLKPEDTAVYYCAARPDGDRLFSYWGQGTQVTVSS | low polyreactivity
19 | QVQLVESGGGLVQAGGSHRLSCAASGIIIEGNVMGWSRQSPGKQSELVAAITSDTSTNYGDSVKGRFTISRDNATNTVYLQMNSLKPEDTGVYYCNAVIGTDYFYSGTAEFYYWGQGTQVTVSS | low polyreactivity
20 | QVQLVESGGGLVQAGGSLRLSCAASGRIFQDYAMGWYRQATGKERELVAAITWSGGRTYYADSVKGRFTISRDNAKNTVYLQMNSLKPEDTAVYYCNRLTQSRLYYGPREYYYWGQGTQVTVSS | high polyreactivity
21 | QVQLVESGGGLVQAGGSLRLSCADSGRIFVHHDMGRYRQAPGKVRELVATITSGGSTYYADSVKGRFTISRDNAKNTVYLQMNSLKPEDTAVYYCAADSWDYDSRMDYWGQGTQVTVSS | low polyreactivity
22 | QVQLVESGGGLVQAGGSLRLICAACGYTFEHYAMGWYRQAPGKERELVAAITRSGGSTSYADSVKGRFTISRDNAKNTVFLQMNRVKPEDTAVYYCAADSIRYFDYDYWGQGPQVTVSS | low polyreactivity
23 | QVQLVESGGGLVQAGGSLRLSCAASGSTFDPYAMGWYRQAPGKERELVAGISASGGSTYADSVKGRFTISRDNAKNTVYLQMNSLKPEDTACYYCAADTYLIRGPPDEEYWGQGTQVTVSS | low polyreactivity
24 | QVQLVESGGGLVQAGGSLRLSCAASGITFYNSAMGLYRQAPGKERELVAAISSSGGSTYYADSVKGRFTISRDNAKNTVYLQMNSLKPEDTAVYYCAAVIVLSSEDTYYYWGQGTQVTVSS | high polyreactivity
25 | QVQHVESGGGLVQAGGSLSLSCADSGITFYRYAMGCDRQAPAKERELVDRISQIGGSTYYADSVKGRFTISRDNAKNTVYLQMNSLKPEDTAVYYCNARVRYSTVTYLRKYYYWGQGTQVTVSS | high polyreactivity
26 | QDQLVESGGGLVQAGGSLRLSCAASGRIFSKYAKGWYRQAPGKERELVAAITTGGGSTSYADSVKGRFTISRDNAKITVYLQMNSLKPEDTAVYYCAADRLSYGFGMYYWGQGTQVTVSS | low polyreactivity
27 | QVQLVESGGGLVQAGGSLRLSCDASGSIFKLNAMGWYRQAPGKERELVAAITSSGDSTYYADSVKGRFTISRDNAKNTVYLQMNSLKPEDTAVFYCNREDAGIMDYWGQGTHVTVSS | low polyreactivity
28 | QVQLVESGGGLVQAGGSLRLSCAASGSTLDRYVMGWYRQAPGKERELVAAISRNGGSTYYADSVKGRFTISRDNAKNTVYLQMNSLKPEDTAVYYCARYAGFPYTQGDYWGQGTQVTVSS | high polyreactivity
29 | QVQLVESGGGLVQAGGSLRLSCAASGGTFPYNAMGWYRQAPGKERELVAAISSSGTSTYYADSVKGRFTISRDNAKNTVYLQMNSLKPEDTAVYYCNDYFKRYDYWGQGTQVTVSS | high polyreactivity
30 | QVQLVESGGGLVQAGGSLRLSCAASGFTFAYYAMGWYRQAPGKERELVAAISSGDNTNYADSVKGRFTISRDNAKNTVYLQMNSLKPEDTAVYYCNAEYNFKWWGPYWYYVKDDYWGQGTQVTVSS | low polyreactivity
31 | QVQLVESGGGLVQAGGSLRLICAASGFTFSYYAMGWYRQAPGKESELVAGITTGGGTNYADSVKGRFTISRDNAKNTVYLQMNCLKPEDTAVYYCNAVGSHWVSYSSPVRFDFWGQGTQVTVSS | low polyreactivity
32 | QVQLLESGGGLVQSGGSLRLSCAASGLTFGSNAMGWYRQATGKEREMVAAISYGGGSTSYADSVKGRFTISRDNAKNTVYLQMNSLKPEDTSVYYCAVVWLCAYSRTNYYYWGQGTQVTVSS | low polyreactivity

— the nanobody polyreactivity screen of Harvey et al. (2022)
